Drawing on article PMC5757785, this text covers Kd for 1 substance.

The Kd is a measure of binding affinity in units of concentration.

The target of this assay is FlAsH-tagged Lys6-linked diubiquitin (UniProt P0CG47). The assay is described as follows: fluorescence polarisation. (In fluorescence polarisation assays a small probe gives low polarisation when free and higher when bound to something large.)

In the case of “USP30^c13i (inactive USP30 construct 13, C77A) (from UniProt Q70CQ3 1-517) (enzyme)”, the Kd came to 4 µM.
